B2: human full-length p50^Cdc37 (residues 1-378) (natural protein, UniProt Q16543 1-378, looked up)
chain: MVDYSVWDHIEVSDDEDETHPNIDTASLFRWRHQARVERMEQFQKEKEELDRGCRECKRKVAECQRKLKELEVAEGGKAELERLQAEAQQLRKEERSWEQKLEEMRKKEKSMPWNVDTLSKDGFSKSMVNTKPEKTEEDSEEVREQKHKTFVEKYEKQIKHFGMLRRWDDSQKYLSDNVHLVCEETANYLVIWCIDLEVEEKCALMEQVAHQTIVMQFILELAKSLKVDPRACFRQFFTKIKTADRQYMEGFNDELEAFKERVRGRAKLRIEKAMKEYEEEERKKRLGPGGLDPVEVYESLPEELQKCFDVKDVQMLQDAISKMDPTDAKYHMQRCIDSGLWVPNSKASEAKEGEEAGPGDPLLEAVPKTGDEKDVSV
notes: p50 Cdc37, human, full length, residues 1-378; Eluted as a dimer in size-exclusion chromatography; source: tag cleaved with PreScission protease

Details in all cases: both partners purified
In experiment [1] the target is B2. Put plainly: ITC; p50^Cdc37 (200 µM) titrated into Hsp90 (20 µM); 50 mM HEPES pH 7.5, 10 mM MgCl2, 30 °C. (In general: ITC needs no label: the signal is the heat of the interaction.)
Experiment [2] deals with T1, human full-length Hsp90β (human, UniProt P08238 1-724).
T1 construct: Hsp90β, human, full length, subcloned from T47D cell line cDNA into pET28a; Eluted as a dimer in size-exclusion chromatography; No step that removes the His6 tag is described; the tag is detected in the ELISA; also called hHsp90β-FL; His6-Hsp90
The description is as above.

Experiment [3] deals with T2, CK2-phosphorylated human full-length Hsp90β (human, UniProt P08238 1-724, phosphoserine at 255 (shown by Western blot); Ser226 named as a CK2 site, its phosphorylation could not be verified).
T2 construct: Hsp90β, human, full length, phosphorylated by CK2α; only pSer255 was checked; also called (p)Hsp90; h(p)Hsp90β-FL; source: E. coli BL21 Star (DE3), purified, then phosphorylated in vitro with purified CK2α and ATP
The description is as above.

Experiment [4] concerns the target T1, human full-length Hsp90β. Put plainly: SEC; analytical Superdex200 10/300 GL, room temperature, 0.3 mL/min; 85 µM protein in 50 mM HEPES pH 7.5, 50 mM KCl, 5 mM MgCl2, 1 mM DTT; fractions on SDS-PAGE. On the technique in general: SEC sorts molecules by how far they enter the pores of the column.
For experiment [5], the target named is T3, GST-p50^Cdc37 (human, UniProt Q16543 1-378).
T3 construct: p50 Cdc37, human, full length, residues 1-378, in pGEX6P-1; also called GST-tagged p50^Cdc37; source: E. coli BL21 (DE3), purified (glutathione sepharose, size exclusion); not shown: GST, N-terminal, kept
T3 sequence (looked up): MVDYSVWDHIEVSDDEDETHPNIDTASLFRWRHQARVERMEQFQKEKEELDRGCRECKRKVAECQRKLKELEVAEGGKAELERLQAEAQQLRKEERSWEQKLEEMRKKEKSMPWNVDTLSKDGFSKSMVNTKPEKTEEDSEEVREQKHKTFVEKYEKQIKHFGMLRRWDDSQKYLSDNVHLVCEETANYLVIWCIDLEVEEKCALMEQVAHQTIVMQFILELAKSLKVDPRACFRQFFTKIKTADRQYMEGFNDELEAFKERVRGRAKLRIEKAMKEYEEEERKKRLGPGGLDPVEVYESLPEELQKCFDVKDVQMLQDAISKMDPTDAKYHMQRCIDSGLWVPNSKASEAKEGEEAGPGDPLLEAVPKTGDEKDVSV
The experiment can be described thus: ELISA; GST-p50^Cdc37 (4 µM) immobilised on glutathione-coated plates; His6-Hsp90 (4 µM) pre-incubated with nucleotides and/or inhibitors in 5% DMSO, detected with anti-His6; 50 mM HEPES pH 7.5, 150 mM NaCl, 10 mM MgCl2, 0.05% Tween-20, 0.1% BSA; room temperature.

T2 sequence (P08238 whole entry): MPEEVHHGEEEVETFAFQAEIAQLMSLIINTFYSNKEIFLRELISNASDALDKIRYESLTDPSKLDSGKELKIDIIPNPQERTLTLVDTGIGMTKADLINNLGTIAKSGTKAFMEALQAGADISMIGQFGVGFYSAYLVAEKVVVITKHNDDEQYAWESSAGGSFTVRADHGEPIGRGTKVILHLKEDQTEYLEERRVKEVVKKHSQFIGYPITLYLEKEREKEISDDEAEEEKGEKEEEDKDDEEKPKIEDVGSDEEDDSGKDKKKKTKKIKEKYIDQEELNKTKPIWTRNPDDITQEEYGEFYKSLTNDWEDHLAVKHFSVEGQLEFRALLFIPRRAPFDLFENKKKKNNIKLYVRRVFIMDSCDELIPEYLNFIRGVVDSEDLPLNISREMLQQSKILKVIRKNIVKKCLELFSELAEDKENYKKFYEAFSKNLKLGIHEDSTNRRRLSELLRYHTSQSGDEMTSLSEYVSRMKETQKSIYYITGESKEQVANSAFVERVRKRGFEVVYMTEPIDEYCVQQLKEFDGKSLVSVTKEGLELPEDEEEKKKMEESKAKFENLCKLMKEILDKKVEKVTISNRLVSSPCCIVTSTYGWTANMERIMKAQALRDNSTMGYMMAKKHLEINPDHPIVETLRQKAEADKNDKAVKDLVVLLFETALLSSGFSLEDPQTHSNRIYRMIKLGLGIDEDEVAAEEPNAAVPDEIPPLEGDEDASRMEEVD

B1: human Hsp90β (1-724 Δ220-275) (natural protein)
chain: not shown
notes: Hsp90β, human, residues before the deleted charged linker 220-275 of the construct 1-724; four glycine residues that replace the deleted section 220-275; Hsp90β, human, residues after the deleted charged linker 220-275 of the construct 1-724; Gene synthesised by GeneArt, codon optimised for E. coli; pET28a; also called ΔHsp90; ΔHsp90β
In general, Kd refers to the concentration at which binding is half-saturated. High values mean lower affinity, low ones higher affinity. The molecule B1 had a Kd in experiment [1] of 1.1 µM.

By stoichiometry N is commonly meant the number of molecules, sites or subunits per partner or assembly. In the case of B2, the figures for the Kd in experiment [2] and in experiment [3] were 1.2 µM and 1.7 µM, respectively. For the same molecule, the “stoichiometry N” value in experiment [4] was 1.

B3: CK2-phosphorylated human full-length p50^Cdc37 (natural protein, UniProt Q16543 1-378, looked up)
chain: MVDYSVWDHIEVSDDEDETHPNIDTASLFRWRHQARVERMEQFQKEKEELDRGCRECKRKVAECQRKLKELEVAEGGKAELERLQAEAQQLRKEERSWEQKLEEMRKKEKSMPWNVDTLSKDGFSKSMVNTKPEKTEEDSEEVREQKHKTFVEKYEKQIKHFGMLRRWDDSQKYLSDNVHLVCEETANYLVIWCIDLEVEEKCALMEQVAHQTIVMQFILELAKSLKVDPRACFRQFFTKIKTADRQYMEGFNDELEAFKERVRGRAKLRIEKAMKEYEEEERKKRLGPGGLDPVEVYESLPEELQKCFDVKDVQMLQDAISKMDPTDAKYHMQRCIDSGLWVPNSKASEAKEGEEAGPGDPLLEAVPKTGDEKDVSV
modifications: phosphoserine at 13 (shown by Western blot)
notes: p50 Cdc37, human, full length, residues 1-378, phosphorylated by CK2α; also called (p)p50^Cdc37; source: E. coli Tuner (DE3), purified, then phosphorylated in vitro with purified CK2α and ATP
Turning to B3, the Kd is 5.1 µM in experiment [2] and 8.6 µM in experiment [3].

B4: human Hsp90α (1-732 Δ226-283) (natural protein)
chain: not shown
notes: Hsp90α, human, residues before the deleted section 226-283 of the construct 1-732; four glycine residues that replace the deleted section 226-283; Hsp90α, human, residues after the deleted section 226-283 of the construct 1-732; Gene synthesised by GeneArt; pET28a; also called ΔHsp90α
For B4, the binding result in experiment [5] is “binds”.

B5: human N-terminal Hsp90β (1-219) (domain or fragment)
chain: not shown
notes: Hsp90β, human, N-terminal domain, residues 1-219; Gene synthesised by GeneArt; pET28a; also called N-Hsp90; Hsp90β-N
For the molecule B5, the Kd in experiment [1] is 4.4 µM.
